Variants at the floor of the assay were thinned out.
Tests used:
biotinyl-Leu-oxazolone = test: self-aminoacylation, catalytic enhancement (BLO) (fold over background); higher = more active; k-Seq, kA / k0A0; sequences stand for … in GGGAAUGGAUCCACAUCUACGAAUUC…UUCACUGCAGACUUGACGAAGCUG
Summary of the method: (§1)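 Each biotinyl-aminoacyl-oxazolone, at 2–1250 μM, was incubated with mutagenized RNA pools (0.43 μM) carrying a 21-nt variable region. The 50 μL reactions contained HEPES/NaCl/KCl/MgCl2/CaCl2 buffer with 5% acetonitrile at pH 6.9–7.0 and ran for 90 minutes at room temperature. After streptavidin capture, RNA was measured by qPCR in triplicate and by Illumina sequencing, and catalytic enhancement was calculated as median kA over the uncatalyzed rate from a pseudo-first-order fit of per-sequence fraction reacted.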

biotinyl-Phe-oxazolone = test: self-aminoacylation, catalytic enhancement (BFO) (fold over background); higher = more active; k-Seq, kA / k0A0; sequences stand for … in GGGAAUGGAUCCACAUCUACGAAUUC…UUCACUGCAGACUUGACGAAGCUG
Summary of the method: as §1

biotinyl-Trp-oxazolone = test: self-aminoacylation, catalytic enhancement (BWO) (fold over background); higher = more active; k-Seq, kA / k0A0; sequences stand for … in GGGAAUGGAUCCACAUCUACGAAUUC…UUCACUGCAGACUUGACGAAGCUG
Summary of the method: as §1

biotinyl-Ile-oxazolone = test: self-aminoacylation, catalytic enhancement (BIO) (fold over background); higher = more active; k-Seq, kA / k0A0; sequences stand for … in GGGAAUGGAUCCACAUCUACGAAUUC…UUCACUGCAGACUUGACGAAGCUG
Summary of the method: as §1

biotinyl-Val-oxazolone = test: self-aminoacylation, catalytic enhancement (BVO) (fold over background); higher = more active; k-Seq, kA / k0A0; sequences stand for … in GGGAAUGGAUCCACAUCUACGAAUUC…UUCACUGCAGACUUGACGAAGCUG
Summary of the method: as §1

biotinyl-Met-oxazolone = test: self-aminoacylation, catalytic enhancement (BMO) (fold over background); higher = more active; k-Seq, kA / k0A0; sequences stand for … in GGGAAUGGAUCCACAUCUACGAAUUC…UUCACUGCAGACUUGACGAAGCUG
Summary of the method: as §1

| Sequence | self-aminoacylation (biotinyl-Leu-oxazolone) | self-aminoacylation (biotinyl-Phe-oxazolone) | self-aminoacylation (biotinyl-Trp-oxazolone) | self-aminoacylation (biotinyl-Ile-oxazolone) | self-aminoacylation (biotinyl-Val-oxazolone) | self-aminoacylation (biotinyl-Met-oxazolone) |
| --- | --- | --- | --- | --- | --- | --- |
| CGACUUCAAACCAUCGGUCUG [Fam1A.1 aminoacylation ribozyme variant] | 0.811 | 0.966 | 0.886 | 0.838 | 1.08 | 0.807 |
| CGACUUCAUACAAUCGGUCUG [Fam1A.1 aminoacylation ribozyme variant] | 0.738 | 1.01 | 0.879 | 0.939 | 0.904 | 0.796 |
| CGUACCCUGGUCAUCGAGUGA [Fam2.1 aminoacylation ribozyme variant] | 9.81 | 10.1 | 10.9 | 4.66 | 5.62 | 8.76 |
| CGUCACCUAGGUCAUCGGGUG [Fam2.2 aminoacylation ribozyme variant] | 4.11 | 28.9 | 6 | 3.51 | 5.16 | 3.71 |
| CUAAUACAAACAAUCGGUCUG [Fam1A.1 aminoacylation ribozyme variant] | 0.477 | 0.757 | 0.678 | 0.676 | 0.682 | 0.674 |
| CUAAUGCAAACAAUCGGUCUG [Fam1A.1 aminoacylation ribozyme variant] | 0.55 | 0.853 | 0.581 | 0.612 | 0.577 | 0.631 |
| CUAAUUCAAACAAUCGGGCUG [Fam1A.1 aminoacylation ribozyme variant] | 1.02 | 1.49 | 1.14 | 0.805 | 0.852 | 0.87 |
| CUAAUUCAAACAGUCGGUCUG [Fam1A.1 aminoacylation ribozyme variant] | 0.915 | 0.62 | 0.523 | 0.839 | 0.853 | 0.731 |
| CUAAUUCAACCAAUCGGUCUG [Fam1A.1 aminoacylation ribozyme variant] | 0.676 | 2.11 | 1.19 | 0.66 | 0.741 | 0.63 |
| CUAAUUCAAUCAAUCGGUCUG [Fam1A.1 aminoacylation ribozyme variant] | 0.735 | 4.62 | 2.7 | 0.805 | 0.72 | 0.742 |
| CUACAACAAACAAUCGGUCUG [Fam1A.1 aminoacylation ribozyme variant] | 0.743 | 0.946 | 0.491 | 0.646 | 0.642 | 0.496 |
| CUACAAUUCAAGCAAUCGGUC [Fam1B.1 aminoacylation ribozyme variant] | 0.75 | 2.71 | 1.61 | 0.902 | 0.779 | 0.819 |
| CUACACUUAAAGCAAUCGGUC [Fam1B.1 aminoacylation ribozyme variant] | 0.696 | 0.694 | 0.459 | 0.786 | 0.738 | 0.713 |
| CUACACUUCAAGCAAUCGGCC [Fam1B.1 aminoacylation ribozyme variant] | 2.41 | 6.22 | 5.03 | 1.82 | 1.75 | 1.69 |
| CUACACUUCAAGCAAUCGGUG [Fam1B.1 aminoacylation ribozyme variant] | 4.94 | 5.79 | 4.25 | 2.71 | 2.61 | 3.49 |
| CUACACUUCAAGCACUCGGUC [Fam1B.1 aminoacylation ribozyme variant] | 0.757 | 0.867 | 0.614 | 0.886 | 0.945 | 0.786 |
| CUACACUUCAAGCAGUCGGUC [Fam1B.1 aminoacylation ribozyme variant] | 0.741 | 0.895 | 0.628 | 0.775 | 0.758 | 0.739 |
| CUACACUUCUAGCAAUCGGUC [Fam1B.1 aminoacylation ribozyme variant] | 0.669 | 0.693 | 0.565 | 0.706 | 0.635 | 0.572 |
| CUACACUUUAAGCAAUCGGUC [Fam1B.1 aminoacylation ribozyme variant] | 0.585 | 0.979 | 0.565 | 0.768 | 0.74 | 0.63 |
| CUACAUCAAACAAUCGGACUG [Fam1A.1 aminoacylation ribozyme variant] | 0.586 | 1.11 | 0.749 | 1.1 | 0.974 | 0.804 |
| CUACAUCAAACAAUCGGCCUG [Fam1A.1 aminoacylation ribozyme variant] | 1.41 | 2.89 | 2.21 | 1.25 | 1.25 | 1.35 |
| CUACAUCAAACAAUCGGUCCG [Fam1A.1 aminoacylation ribozyme variant] | 0.805 | 0.932 | 0.83 | 0.838 | 0.872 | 1.1 |
| CUACAUCAAACCAUCGGUCUG [Fam1A.1 aminoacylation ribozyme variant] | 0.889 | 1.04 | 0.6 | 0.834 | 0.932 | 0.791 |
| CUACAUCAAAGAAUCGGUCUG [Fam1A.1 aminoacylation ribozyme variant] | 0.592 | 0.801 | 0.67 | 0.78 | 0.68 | 0.817 |
| CUACAUCAACCAAUCGGUCUG [Fam1A.1 aminoacylation ribozyme variant] | 0.554 | 1.44 | 0.796 | 0.643 | 0.781 | 0.748 |
| CUACCUCAAACAAGCGGUCUG [Fam1A.1 aminoacylation ribozyme variant] | 0.828 | 5.07 | 1.11 | 1.25 | 0.97 | 1.57 |

| Sequence | self-aminoacylation (biotinyl-Leu-oxazolone) | self-aminoacylation (biotinyl-Phe-oxazolone) | self-aminoacylation (biotinyl-Trp-oxazolone) | self-aminoacylation (biotinyl-Ile-oxazolone) | self-aminoacylation (biotinyl-Val-oxazolone) | self-aminoacylation (biotinyl-Met-oxazolone) |
| --- | --- | --- | --- | --- | --- | --- |
| CUACCUCAAACAAUCGGUCUA [Fam1A.1 aminoacylation ribozyme variant] | 0.89 | 1.45 | 0.934 | 1.01 | 0.885 | 1.16 |
| CUACGCUUCAAGCAAUCGGUC [Fam1B.1 aminoacylation ribozyme variant] | 1.86 | 59.9 | 29.9 | 0.964 | 1.06 | 1.14 |
| CUACGUCAAACAUUCGGUCUG [Fam1A.1 aminoacylation ribozyme variant] | 2.5 | 12.8 | 3.07 | 2.87 | 3.79 | 2.93 |
| CUACUACAAACAAACGGUCUG [Fam1A.1 aminoacylation ribozyme variant] | 0.648 | 0.827 | 0.575 | 0.874 | 0.857 | 0.673 |
| CUACUACAAACAAUCGGUCUG [Fam1A.1 aminoacylation ribozyme variant] | 0.608 | 1.24 | 0.73 | 0.694 | 0.743 | 0.634 |
| CUACUACAAACAAUCGGUCUU [Fam1A.1 aminoacylation ribozyme variant] | 0.515 | 0.658 | 0.511 | 0.533 | 0.675 | 0.565 |
| CUACUACAAACAAUCGUUCUG [Fam1A.1 aminoacylation ribozyme variant] | 0.538 | 0.604 | 0.338 | 0.648 | 0.649 | 0.468 |
| CUACUACAAACGAUCGGUCUG [Fam1A.1 aminoacylation ribozyme variant] | 0.656 | 0.437 | 0.607 | 0.821 | 0.797 | 0.915 |
| CUACUACUAACAAUCGGUCUG [Fam1A.1 aminoacylation ribozyme variant] | 0.495 | 1 | 0.466 | 0.764 | 0.673 | 0.729 |
| CUACUCAAAACAAUCGGUCUG [Fam1A.1 aminoacylation ribozyme variant] | 0.676 | 1.27 | 1.23 | 1.02 | 0.968 | 1.11 |
| CUACUCCAAACAAUAGGUCUG [Fam1A.1 aminoacylation ribozyme variant] | 0.744 | 1.17 | 0.734 | 0.839 | 0.776 | 0.938 |
| CUACUCCAAACAAUCGGCCUG [Fam1A.1 aminoacylation ribozyme variant] | 2.07 | 3.54 | 3.22 | 1.65 | 1.42 | 1.38 |
| CUACUCCAAACAAUCGGUCUC [Fam1A.1 aminoacylation ribozyme variant] | 0.513 | 2.41 | 1.34 | 0.71 | 0.723 | 0.753 |
| CUACUCCAAACAAUCGGUCUG [Fam1A.1 aminoacylation ribozyme variant] | 0.731 | 3.09 | 1.95 | 0.801 | 0.825 | 0.786 |
| CUACUCCAAACAAUCGGUGUG [Fam1A.1 aminoacylation ribozyme variant] | 0.964 | 1.03 | 0.752 | 0.733 | 0.879 | 0.945 |
| CUACUCCAAACAAUCUGUCUG [Fam1A.1 aminoacylation ribozyme variant] | 0.716 | 0.973 | 0.506 | 0.799 | 0.766 | 0.578 |
| CUACUCCAACCAAUCGGUCUG [Fam1A.1 aminoacylation ribozyme variant] | 0.855 | 0.726 | 0.879 | 0.623 | 0.706 | 0.74 |
| CUACUCCACACAAUCGGUCUG [Fam1A.1 aminoacylation ribozyme variant] | 0.702 | 0.891 | 0.9 | 0.696 | 0.731 | 0.722 |
| CUACUCGAAACAAUCGGUCUG [Fam1A.1 aminoacylation ribozyme variant] | 0.84 | 0.599 | 0.979 | 0.837 | 1.01 | 0.942 |
| CUACUGCAAAAAAUCGGUCUG [Fam1A.1 aminoacylation ribozyme variant] | 0.638 | 0.868 | 0.892 | 0.788 | 0.703 | 0.686 |
| CUACUGCAAACAAUCGAUCUG [Fam1A.1 aminoacylation ribozyme variant] | 0.663 | 0.699 | 0.679 | 0.705 | 0.732 | 0.937 |
| CUACUGCAAACAAUCGGGCUG [Fam1A.1 aminoacylation ribozyme variant] | 1.61 | 8.54 | 0.887 | 1.74 | 1.98 | 1.69 |
| CUACUGCAAACAAUCGGUCUG [Fam1A.1 aminoacylation ribozyme variant] | 0.776 | 1.08 | 0.77 | 0.804 | 0.844 | 0.769 |
| CUACUGCAUACAAUCGGUCUG [Fam1A.1 aminoacylation ribozyme variant] | 0.577 | 0.959 | 0.659 | 0.677 | 0.643 | 0.612 |
| CUACUUAAAAAAAUCGGUCUG [Fam1A.1 aminoacylation ribozyme variant] | 0.768 | 0.661 | 0.49 | 0.88 | 0.804 | 0.806 |
